From US20040259795A1

Tests used:
[1] = molecular target: soluble recombinant human CD14 (rHu-LAIT) (human) (UniProt P08571); experiment: cell-based or functional assay
[2] = molecular target: soluble recombinant bovine CD14 (rBo-LAIT) (bovine) (UniProt Q95122); experiment: cell-based or functional assay
UniProt Q95122, sequence (Q95122 21-373 S209T limits assumed): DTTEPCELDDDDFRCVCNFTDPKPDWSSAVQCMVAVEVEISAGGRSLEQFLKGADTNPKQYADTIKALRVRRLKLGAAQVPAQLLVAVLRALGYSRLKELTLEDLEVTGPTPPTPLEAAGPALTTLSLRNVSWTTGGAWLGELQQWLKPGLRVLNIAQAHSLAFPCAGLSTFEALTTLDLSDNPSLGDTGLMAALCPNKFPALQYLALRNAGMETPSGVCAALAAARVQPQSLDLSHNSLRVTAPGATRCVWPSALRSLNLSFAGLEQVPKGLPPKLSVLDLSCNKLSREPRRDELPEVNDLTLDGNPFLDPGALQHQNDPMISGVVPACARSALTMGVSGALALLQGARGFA

UniProt P08571, sequence (P08571 20-345 C187Y limits assumed): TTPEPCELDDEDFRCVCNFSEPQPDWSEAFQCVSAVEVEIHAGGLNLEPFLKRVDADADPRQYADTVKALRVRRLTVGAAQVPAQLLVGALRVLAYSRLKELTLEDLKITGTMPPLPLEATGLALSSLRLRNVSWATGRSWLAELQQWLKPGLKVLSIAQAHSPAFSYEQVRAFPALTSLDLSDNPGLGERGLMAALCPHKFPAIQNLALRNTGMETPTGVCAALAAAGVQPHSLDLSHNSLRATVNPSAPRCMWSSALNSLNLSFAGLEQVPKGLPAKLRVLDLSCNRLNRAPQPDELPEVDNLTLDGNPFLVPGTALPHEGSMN

IgG2b isotype non-specific mAb OX40 (antibody)
< 15%: inhibition of B cell activation (3H-TdR uptake, percent of response without mAb) [1] | inhibition of B cell activation (3H-TdR uptake, percent of response without mAb) [2] | inhibition of induction of mIg+ 70Z/3 cells (flow cytometry) [2]
